Assay results from US20190022237.

Assays:
[1] = target: T1, Permanent N-terminal CNP-38 PEG 5 kDa conjugate 15e (not fully specified)
T1 chain: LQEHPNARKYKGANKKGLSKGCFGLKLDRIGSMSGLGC

[2] = target: T2, Permanent N-terminal CNP-34 PEG 5 kDa conjugate 14e (not fully specified)
T2 chain: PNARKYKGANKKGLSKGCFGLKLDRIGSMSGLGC

[3] = target: T3, Permanent Lys26 CNP-38 PEG4x10 kDa conjugate 12g (not fully specified)
T3 chain: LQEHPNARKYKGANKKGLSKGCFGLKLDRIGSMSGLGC

Measured: half life norm. [h] (in vitro NEP digest)

B1: recombinant human Neutral Endopeptidase (NEP) (protein)
chain: YDDGICKSSDCIKSAARLIQNMDATTEPCTDFFKYACGGWLKRNVIPETSSRYGNFDILRDELEVVLKDVLQEPKTEDIVAVQKAKALYRSCINESAIDSRGGEPLLKLLPDIYGWPVATENWEQKYGASWTAEKAIAQLNSKYGKKVLINLFVGTDDKNSVNHVIHIDQPRLGLPSRDYYECTGIYKEACTAYVDFMISVARLIRQEERLPIDENQLALEMNKVMELEKEIANATAKPEDRNDPMLLYNKMTLAQIQNNFSLEINGKPFSWLNFTNEIMSTVNISITNEEDVVVYAPEYLTKLKPILTKYSARDLQNLMSWRFIMDLVSSLSRTYKESRNAFRKALYGTTSETATWRRCANYVNGNMENAVGRLYVEAAFAGESKHVVEDLIAQIREVFIQTLDDLTWMDAETKKRAEEKALAIKERIGYPDDIVSNDNKLNNEYLELNYKEDEYFENIIQNLKFSQSKQLKKLREKVDKDEWISGAAVVNAFYSSGRNQIVFPAGILQPPFFSAQQSNSLNYGGIGMVIGHEITHGFDDNGRNFNKDGDLVDWWTQQSASNFKEQSQCMVYQYGNFSWDLAGGQHLNGINTLGENIADNGGLGQAYRAYQNYIKKNGEEKLLPGLDLNHKQLFFLNFAQVWCGTYRPEYAVNSIKTDVHSPGNFRIIGTLQNSAEFSEAFHCRKNSYMNPEKKCRVW
Almost no proteolysis after 4 days.: [1] | [2] | [3]
